Reference: the supplement of paper PMC11316812
± gives the standard deviation of the averaged measurements.

Columns and labels:
[1] = system: MCF7; experiment: percentage of EdU-negative (G0-arrested) nuclei per well, 72 h; higher = more G0 arrest; settings: reference: sequence is the full UniProt precursor, the tested protein was the secreted form or ectodomain
[2] = system: hTERT-HMEC; experiment: as above; settings: reference: sequence is the full UniProt precursor, the tested protein was the secreted form or ectodomain
[3] = protein concentration 0.0155 µM
[4] = protein concentration 0.0225 µM
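Also: secreted proteins added to cultured cells, EdU pulse at the end, nuclei found by Hoechst imaging, EdU status from nuclear versus surrounding ring intensity ratio, PBS as neutral control.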

| Sequence | percentage of EdU-negative [1, 4] [%] | percentage of EdU-negative ([1]; protein concentration 0.225 µM) [%] | percentage of EdU-negative [2, 4] [%] | percentage of EdU-negative ([2]; protein concentration 0.225 µM) [%] | further results |
| --- | --- | --- | --- | --- | --- |
| MLRGTLLCAVLGLLRAQPFPCPPACKCVFRDAAQCSGGDVARISALGLPTNLTHILLFGMGRGVLQSQSFSGMTVLQRLMISDSHISAVAPGTFSDLIKLKTLRLSRNKITHLPGALLDKMVLLEQLFLDHNALRGIDQNMFQKLVNLQELALNQNQLDFLPASLFTNLENLKLLDLSGNNLTHLPKGLLGAQAKLERLLLHSNRLVSLDSGLLNSLGALTELQFHRNHIRSIAPGAFDRLPNLSSLTLSRNHLAFLPSALFLHSHNLTLLTLFENPLAELPGVLFGEMGGLQELWLNRTQLRTLPAAAFRNLSRLRYLGVTLSPRLSALPQGAFQGLGELQVLALHSNGLTALPDGLLRGLGKLRQVSLRRNRLRALPRALFRNLSSLESVQLDHNQLETLPGDVFGALPRLTEVLLGHNSWRCDCGLGPFLGWLRQHLGLVGGEEPPRCAGPGAHAGLPLWALPGGDAECPGPRGPPPRPAADSSSEAPVHPALAPNSSEPWVWAQPVTTGKGQDHSPFWGFYFLLLAVQAMITVIIVFAMIKIGQLFRKLIRERALG |  |  |  |  | percentage of EdU-negative [1, 3]: 24.8 ± 4.1%; percentage of EdU-negative ([1]; protein concentration 0.155 µM): 32.8 ± 1.1%; percentage of EdU-negative [2, 3]: 4.92 ± 0.41%; percentage of EdU-negative ([2]; protein concentration 0.155 µM): 9.145 ± 0.063% |
| MEGAGPRGAGPARRRGAGGPPSPLLPSLLLLLLLWMLPDTVAPQELNPRGRNVCRAPGSQVPTCCAGWRQQGDECGIAVCEGNSTCSENEVCVRPGECRCRHGYFGANCDTKCPRQFWGPDCKELCSCHPHGQCEDVTGQCTCHARRWGARCEHACQCQHGTCHPRSGACRCEPGWWGAQCASACYCSATSRCDPQTGACLCHAGWWGRSCNNQCACNSSPCEQQSGRCQCRERTFGARCDRYCQCFRGRCHPVDGTCACEPGYRGKYCREPCPAGFYGLGCRRRCGQCKGQQPCTVAEGRCLTCEPGWNGTKCDQPCATGFYGEGCSHRCPPCRDGHACNHVTGKCTRCNAGWIGDRCETKCSNGTYGEDCAFVCADCGSGHCDFQSGRCLCSPGVHGPHCNVTCPPGLHGADCAQACSCHEDTCDPVTGACHLETNQRKGVMGAGALLVLLVCLLLSLLGCCCACRGKDPTRRPRPRRELSLGRKKAPHRLCGRFSRISMKLPRIPLRRQKLPKVVVAHHDLDNTLNCSFLEPPSGLEQPSPSWSSRASFSSFDTTDEGPVYCVPHEEAPAESRDPEVPTVPAEAPAPSPVPLTTPASAEEAIPLPASSDSERSASSVEGPGGALYARVARREARPARARGEIGGLSLSPSPERRKPPPPDPATKPKVSWIHGKHSAAAAGRAPSPPPPGSEAAPSPSKRKRTPSDKSAHTVEHGSPRTRDPTPRPPGLPEEATALAAPSPPRARARGRGPGLLEPTDAGGPPRSAPEAASMLAAELRGKTRSLGRAEVALGAQGPREKPAPPQKAKRSVPPASPARAPPATETPGPEKAATDLPAPETPRKKTPIQKPPRKKSREAAGELGRAGAPTL [Q96GP6] | 25.7 ± 1.2 | 36.9 ± 0.76 | 3.85 ± 0.62 | 18.5 ± 6.1 |  |
| MVPKLFTSQICLLLLLGLMGVEGSLHARPPQFTRAQWFAIQHISLNPPRCTIAMRAINNYRWRCKNQNTFLRTTFANVVNVCGNQSIRCPHNRTLNNCHRSRFRVPLLHCDLINPGAQNISNCTYADRPGRRFYVVACDNRDPRDSPRYPVVPVHLDTTI |  |  |  |  | percentage of EdU-negative ([1]; protein concentration 0.022 µM): 26.3 ± 2.1%; percentage of EdU-negative ([1]; protein concentration 0.22 µM): 25.35 ± 0.13%; percentage of EdU-negative ([2]; protein concentration 0.022 µM): 5.32 ± 0.8%; percentage of EdU-negative ([2]; protein concentration 0.22 µM): 6.25 ± 2.1% |
| MLRMRVPALLVLLFCFRGRAGPSPHFLQQPEDLVVLLGEEARLPCALGAYWGLVQWTKSGLALGGQRDLPGWSRYWISGNAANGQHDLHIRPVELEDEASYECQATQAGLRSRPAQLHVLVPPEAPQVLGGPSVSLVAGVPANLTCRSRGDARPTPELLWFRDGVLLDGATFHQTLLKEGTPGSVESTLTLTPFSHDDGATFVCRARSQALPTGRDTAITLSLQYPPEVTLSASPHTVQEGEKVIFLCQATAQPPVTGYRWAKGGSPVLGARGPRLEVVADASFLTEPVSCEVSNAVGSANRSTALDVLFGPILQAKPEPVSVDVGEDASFSCAWRGNPLPRVTWTRRGGAQVLGSGATLRLPSVGPEDAGDYVCRAEAGLSGLRGGAAEARLTVNAPPVVTALHSAPAFLRGPARLQCLVFASPAPDAVVWSWDEGFLEAGSQGRFLVETFPAPESRGGLGPGLISVLHISGTQESDFSRSFNCSARNRLGEGGAQASLGRRDLLPTVRIVAGVAAATTTLLMVITGVALCCWRHSKASASFSEQKNLMRIPGSSDGSSSRGPEEEETGSREDRGPIVHTDHSDLVLEEEGTLETKDPTNGYYKVRGVSVSLSLGEAPGGGLFLPPPSPLGPPGTPTFYDFNPHLGMVPPCRLYRARAGYLTTPHPRAFTSYIKPTSFGPPDLAPGTPPFPYAAFPTPSHPRLQTHV [Q6UWL6] | 26.9 ± 3.4 | 28.2 ± 1.2 | 5.24 ± 0.16 | 5.69 ± 0.77 |  |
